Assays:
Assay in all cases: peptide array, immobilised linear 15-mers
[1] = target: T1, ANGPTL4-derived peptide P21 (human)
T1 peptide: STDLPLAPESRVDPE
Method: (§1) The ability of selected antibodies of invention, namely MOR022765 and MOR022770, to bind to linear 15-amino-acid peptides derived from the N-terminal coiled coil domain of human ANGPTL4 was tested. The peptides were immobilized on a glass surface, and the ability of MOR022765 and MOR022770 to bind to the immobilized peptides was evaluated using experimental methods optimized for linear peptide epitope mapping at JPT Peptide Technologies (Berlin, Germany).

[2] = target: T2, ANGPTL4-derived peptide P22 (human)
T2 peptide: LPLAPESRVDPEVLH
Method: as §1

[3] = target: T3, ANGPTL4-derived peptide P18 (human)
T3 construct: printed with S where human ANGPTL4 has C
T3 peptide: GSASQGTEGSTDLPL
Method: as §1

[4] = target: T4, ANGPTL4-derived peptide P43 (human)
T4 peptide: KHLDHEVAKPARRKR
Method: as §1

[5] = target: T5, ANGPTL4-derived peptide P30 (human)
T5 peptide: NSRIQQLFHKVAQQQ
Method: as §1

[6] = target: T6, ANGPTL4-derived peptide P19 (human)
T6 construct: printed with S where human ANGPTL4 has C
T6 peptide: SQGTEGSTDLPLAPE
Method: as §1

[7] = target: T7, ANGPTL4-derived peptide P15 (human)
T7 construct: printed with S where human ANGPTL4 has C
T7 peptide: ALERRLSASGSASQG
Method: as §1

[8] = target: T8, ANGPTL4-derived peptide P7 (human)
T8 peptide: LAHGLLQLGQGLREH
Method: as §1

[9] = target: T9, ANGPTL4-derived peptide P6 (human)
T9 peptide: MNVLAHGLLQLGQGL
Method: as §1

[10] = target: T10, ANGPTL4-derived peptide P36 (human)
T10 peptide: EKQHLRIQHLQSQFG
Method: as §1

[11] = target: T11, ANGPTL4-derived peptide P13 (human)
T11 construct: printed with S where human ANGPTL4 has C
T11 peptide: TRSQLSALERRLSAS
Method: as §1

[12] = target: T12, ANGPTL4-derived peptide P27 (human)
T12 peptide: SLQTQLKAQNSRIQQ
Method: as §1

[13] = target: T13, ANGPTL4-derived peptide P11 (human)
T13 peptide: REHAERTRSQLSALE
Method: as §1

[14] = target: T14, ANGPTL4-derived peptide P34 (human)
T14 peptide: QQQRHLEKQHLRIQH
Method: as §1

[15] = target: T15, ANGPTL4-derived peptide P5 (human)
T15 peptide: WDEMNVLAHGLLQLG
Method: as §1

[16] = target: T16, ANGPTL4-derived peptide P16 (human)
T16 construct: printed with S where human ANGPTL4 has C
T16 peptide: RRLSASGSASQGTEG
Method: as §1

[17] = target: T17, ANGPTL4-derived peptide P28 (human)
T17 peptide: TQLKAQNSRIQQLFH
Method: as §1

[18] = target: T18, ANGPTL4-derived peptide P31 (human)
T18 peptide: IQQLFHKVAQQQRHL
Method: as §1

[19] = target: T19, ANGPTL4-derived peptide P12 (human)
T19 peptide: AERTRSQLSALERRL
Method: as §1

[20] = target: T20, ANGPTL4-derived peptide P14 (human)
T20 construct: printed with S where human ANGPTL4 has C
T20 peptide: QLSALERRLSASGSA
Method: as §1

[21] = target: T21, ANGPTL4-derived peptide P25 (human)
T21 peptide: DPEVLHSLQTQLKAQ
Method: as §1

[22] = target: T22, ANGPTL4-derived peptide P35 (human)
T22 peptide: RHLEKQHLRIQHLQS
Method: as §1

[23] = target: T23, ANGPTL4-derived peptide P33 (human)
T23 peptide: KVAQQQRHLEKQHLR
Method: as §1

[24] = target: T24, ANGPTL4-derived peptide P32 (human)
T24 peptide: LFHKVAQQQRHLEKQ
Method: as §1

[25] = target: T25, ANGPTL4-derived peptide P24 (human)
T25 peptide: SRVDPEVLHSLQTQL
Method: as §1

[26] = target: T26, ANGPTL4-derived peptide P1 (human)
T26 construct: linear 15-amino-acid peptide derived from the N-terminal coiled coil domain of human ANGPTL4
T26 peptide: GPVQSKSPRFASWDE
Method: as §1

[27] = target: T27, ANGPTL4-derived peptide P40 (human)
T27 peptide: QFGLLDHKHLDHEVA
Method: as §1

[28] = target: T28, ANGPTL4-derived peptide P3 (human)
T28 peptide: SPRFASWDEMNVLAH
Method: as §1

binding result [1]: no binding
binding result [2]: no binding
binding result [3]: no binding
binding result [4]: no binding
binding result [5]: no binding
binding result [6]: no binding
binding result [7]: no binding
binding result [8]: no binding
binding result [9]: no binding
binding result [10]: no binding
binding result [11]: no binding
binding result [12]: no binding
binding result [13]: no binding
binding result [14]: no binding
binding result [15]: no binding
binding result [16]: no binding
binding result [17]: no binding
binding result [18]: no binding
binding result [19]: no binding
binding result [20]: no binding
binding result [21]: no binding
binding result [22]: no binding
binding result [23]: no binding
binding result [24]: no binding
binding result [25]: no binding
binding result [26]: no binding
binding result [27]: no binding
binding result [28]: no binding
B1: MOR022765 (antibody, human IgG1, lambda, V domains shown)
VH: EVQLVQSGAEVKKPGESLKISCKGSGYSFSTYWISWVRQMPGKGLEWMGIIDPSSSDTRYSPSFQGQVTISADKSISTAYLQWSSLKASDTAMYYCARVYGYVYMDVWGQGTLVTVSS
VL: SYELTQPLSVSVALGQTARITCSGDNLGKKYAYWYQQKPGQAPVLVIYDKTKRPSGIPERFSGSNSGNTATLTISRAQAGDEADYYCASYDWYSSSYVFGGGTKLTVLG
notes: human IgG1

From patent US20160108110A1 (Novartis, published 2016)
